# Results from the supplement of paper PMC11865577.
# How the values were obtained:
# Experiment in all cases: pull-down binding Z-score (relative to library population); higher = stronger binding
# [1] = tested on: TO-3-N3 (biotin conjugate); conditions: RNA library: Library-2
# Method in brief: (§1)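 The RNA library, end-labelled with Cy5 or Cy3, was heat-folded in phosphate/NaCl/KCl buffer, and 1 μg was incubated at 25 °C for 60 min with streptavidin beads carrying 100 pmol of biotin-conjugated small molecule. Hot SDS released the bound RNA, which was then hybridised to a DNA barcode microarray for 20 h at 55.5 °C. For scoring binding, signal from beads alone was subtracted, replicate barcoded probes were averaged after discarding the highest and lowest, and each value was turned into a Z-score from the library mean and standard deviation.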
# [2] = tested on: TO-3-N3-2 (biotin conjugate); conditions: RNA library: Library-2
# Method in brief: as §1
# [3] = tested on: G-clamp-N3 (biotin conjugate); conditions: RNA library: Library-1 (pre-miRNA loops + repeats)
# Method in brief: as §1
# [4] = tested on: TO-N3 (biotin conjugate); conditions: RNA library: Library-2
# Method in brief: as §1
# [5] = tested on: TO-N3-2 (biotin conjugate); conditions: RNA library: Library-2
# Method in brief: as §1
Sequence,pull-down binding Z-score [1],pull-down binding Z-score [2],pull-down binding Z-score [3],pull-down binding Z-score [4],pull-down binding Z-score [5]
CGGGGGGGGCCCGGGGACGGCUUGGGCCUGCCUAGUCGG [hsa-mir-1234],2.08,1.32,1.65,2.73,2.4
CGGUACCCACUGCUGAGGGUGGGGACCA [hsa-mir-3691],0.628,-0.291,-0.0994,0.55,0.687
CGGUCCCAUAUUGAACUCG [hsa-mir-4444-1_4444-2],-0.626,-0.418,-1.03,-0.4,-0.109
CGGUCGGAUAAUCACAUGACGAG [hsa-mir-2114],-0.513,-0.221,0.425,-0.0316,0.592
CGGUGGUCCCUCCCG [hsa-mir-3687-1_3687-2],0.0703,-0.108,-0.273,0.14,0.832
CGGUGUGCAAAUGUGUGUGUGCGGUGUUAUGCCG [hsa-mir-4442],-0.732,-0.663,-0.0251,-0.869,-0.316
CGUACGCUUUAUCUGUGACGUAUG [hsa-mir-411],-0.61,-0.338,0.625,-0.611,-0.0511
CGUAGGCGUUAUGAUUUCUGACCUAUG [hsa-mir-379],-0.513,-0.261,-0.994,0.0365,0.473
CGUAUGUGUAUAUAAAUGUAUACG [hsa-mir-1277],-0.965,-0.547,0.912,-1.29,-1.36
CGUGCAAGUUUAAGUUUUUGCACG [hsa-mir-4445],0.314,-0.0878,0.55,0.282,-0.688
CGUGCACGUACCUGUCACAUGUGUACG [hsa-mir-3939],-0.72,-0.599,-0.021,-0.867,-0.599
CGUGCGCCAGUGGAG [hsa-mir-6089-2_6089-1],0.0799,-0.139,-0.0599,0.573,0.982
CGUGCUCAGCUUGGCACCCAAGUUCUGC [hsa-mir-7704],-0.129,-0.12,-0.0193,0.485,1.39
CGUUCCAAUGCGACACCUCUAGAGUGUCAUCCCCUAGAAUGUCACCUUGGAAAG [hsa-mir-4432],-0.119,-0.104,-1.26,-0.0844,-0.0713
CGUUCGCUUUAUUUAUGGCGCACA [hsa-mir-323a],-0.155,-0.271,-0.817,-0.267,0.118
CGUUGAGUGGGCACCCGAGAAGCCAUCG [hsa-mir-425],0.0191,0.25,-0.628,0.583,1.51
CGUUUAGUAGAUGAUUGUGCAUUGUUUCAAAAUG [hsa-mir-224],-0.714,-0.358,-0.24,-0.502,-0.183
CUAAAUGGUACCCACUUUAUUUAG [hsa-mir-5687],-0.627,-0.0559,-0.726,-0.76,-0.639
